Molecular target: human apolipoprotein-B mRNA-editing catalytic polypetide-like 3A protein (human) (UniProt P31941)
Assay: co-IP; HepaRG cells cotransfected with pLenti6.3-Apobec3A-V5 and pEYFP-Apobec3A, mock-infected or infected with HAdV wt (50 ffu/cell), harvested 24 and 48 hpi; whole-cell lysates; YFP-Apobec3A held on ChromoTek GFP-Trap agarose beads, V5-Apobec3A detected by Western blot; V5 signal normalised to input and β-actin

Chain of human apolipoprotein-B mRNA-editing catalytic polypetide-like 3A protein, P31941 1-199 (enzyme; other documents disagree on this pair) (P31941 whole entry): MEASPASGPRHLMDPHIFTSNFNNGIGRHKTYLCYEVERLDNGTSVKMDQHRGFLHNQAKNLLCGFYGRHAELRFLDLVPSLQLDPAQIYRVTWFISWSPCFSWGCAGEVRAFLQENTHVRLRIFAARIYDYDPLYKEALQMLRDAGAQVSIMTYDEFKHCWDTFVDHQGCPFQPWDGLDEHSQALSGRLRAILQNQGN

human apolipoprotein-B mRNA-editing catalytic polypetide-like 3A protein, P31941 1-199 (enzyme; other documents disagree on this pair)
fold increase of co-precipitated V5-Apobec3A at 48 h after HAdV infection against mock: 10 fold

Source: paper PMC10294656
